In experiment [1] the target is recombinant mouse PD-L1–human Fc chimeric fusion protein (mouse, UniProt Q9EP73 19-239, conjugated with europium cryptate trisbipyridine–N-hydroxysuccinimide). Description: AlphaScreen or HTRF. In general terms: Bead proximity is the source of the signal in Alpha formats.
The target of experiment [2] is natively expressed mouse PD-L1 on mouse tumor cells (Mus musculus (endogenous in Renca cells), UniProt Q9EP73). Description: flow cytometry on cells. Background: In flow cytometry, cells or beads pass a laser one at a time.
natively expressed mouse PD-L1 on mouse tumor cells, sequence (Q9EP73 19-290): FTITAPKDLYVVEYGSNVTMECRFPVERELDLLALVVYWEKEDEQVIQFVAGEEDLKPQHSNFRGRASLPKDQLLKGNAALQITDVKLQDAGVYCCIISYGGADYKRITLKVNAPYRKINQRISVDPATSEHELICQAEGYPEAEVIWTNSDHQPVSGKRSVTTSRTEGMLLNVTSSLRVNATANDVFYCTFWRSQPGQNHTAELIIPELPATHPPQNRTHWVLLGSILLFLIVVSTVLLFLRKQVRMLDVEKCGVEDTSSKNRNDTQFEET

recombinant mouse PD-L1–human Fc chimeric fusion protein, sequence (Q9EP73 19-239, change not shown): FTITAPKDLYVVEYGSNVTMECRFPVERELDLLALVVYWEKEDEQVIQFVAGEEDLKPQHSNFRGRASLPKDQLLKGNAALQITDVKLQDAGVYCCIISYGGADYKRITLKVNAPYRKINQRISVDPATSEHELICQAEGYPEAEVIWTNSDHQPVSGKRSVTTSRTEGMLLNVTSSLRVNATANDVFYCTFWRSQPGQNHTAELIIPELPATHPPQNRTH

B1: recombinant mouse B7-1/CD80 Fc chimera His-tag protein (Fc fusion, UniProt Q00609 38-246, looked up)
chain: VDEQLSKSVKDKVLLPCRYNSPHEDESEDRIYWQKHDKVVLSVIAGKLKVWPEYKNRTLYDNTTYSLIILGLVLSDRGTYSCVVQKKERGTYEVKHLALVKLSIKADFSTPNITESGNPSADTKRITCFASGGFPKPRFSWLENGRELPGINTTISQDPESELYTISSQLDFNTTRNHTIKCLIKYGDAHVSEDFTWEKPPEDPPDSKN
modifications: conjugated with DyLight-650
On to B1, for which, in experiment [1], the binding result was “binds”.

B2: anti-mouse PD-L1 hybridoma clone 17 (antibody, V domains shown)
VH: EVQLVESGGGLVQPGASLKLSCVASGFTFSDYWMSWVRQNPGKTMEWIGDIKYDGSYTDYAPSLKNRFTISRDNAKSTLYLQMSNVRSEDTATYYCTRATGRRDGYYPTDYFDYWGQGVMVTVSS
VL: DIVLTQSPALAVSLGQRATISCWASQSVSISRYNLMHWYQQKPGQQPKLLIYRASNLAGIPPRFSGSGSGTDFTLTINPVQADDIATYYCQQSRESPNTFGAGTKLELK
In the case of B2, in experiment [2], the binding result is “binds”.

For the origin of these results see publication PMC7831362 (mAbs, 2021).
